Experimental data reported in US20200338203A1 (Bicycle, published 2020).
Numbered stars: 1 amine (or outer) side, 2 acyl side, 3 side chain; on linkers, the order of the positions; unused ones are H or OH. Bridge positions count the residues as written; N and C are the ends. Square brackets hold non-standard residues; d marks the D form. Ends that are not written are not given here. Dip = N[C@H](C(=O)O)C(c1ccccc1)c1ccccc1; 1Nal = N[C@@H](Cc1cccc2ccccc12)C(=O)O; TBMB = c1c(C[*:1])cc(C[*:3])cc1C[*:2]; Ala(cPr) = N[C@@H](CC1CC1)C(=O)O; hArg = N=C(N)NCCCC[C@H](N)C(=O)O; Gly(cPr) = N[C@H](C(=O)O)C1CC1; Cba = N[C@@H](CC1CCC1)C(=O)O; Tle = CC(C)(C)[C@H](N)C(=O)O; Aib = CC(C)(N)C(=O)O; Sar = CNCC(=O)O

B1: Compound 162 (peptide)
peptide: Ac-[Sar][Sar]A[dD][Gly(cPr)]TCPWGPFWCPVNRPGC
modifications: linker 7-14-21 via TBMB
B2: Compound 190 (peptide)
peptide: AHDVPCP[1Nal]GPFWCP[Tle]NRPGC
modifications: linker 6-13-20 via TBMB
B3: Compound 179 (peptide)
peptide: Ac-[Sar][Sar]A[dD]VTCPWG[Aib]F[1Nal]CPVNR[Aib]GC
modifications: linker 7-14-21 via TBMB
B4: Compound 155 (peptide)
peptide: ADVHCPWGPFWCPV[dA]RPGCA
modifications: linker 5-12-19 via TBMB
B5: Compound 148 (peptide)
peptide: Ac-[Sar][Sar]ADVHCPWGPFWCPVNRPGC
modifications: linker 7-14-21 via TBMB
B6: Compound 157 (peptide)
peptide: Ac-[Sar][Sar]ADVTCPWGPFWCPVNRPGC
modifications: linker 7-14-21 via TBMB
B7: Compound 185 (peptide)
peptide: [dD]VTCPWGPFWCPVNRPGC
modifications: linker 4-11-18 via TBMB
B8: Compound 187 (peptide)
peptide: AHDVPCP[1Nal]GPFWCPVNRPGCA
modifications: linker 6-13-20 via TBMB
B9: Compound 175 (peptide)
peptide: Ac-[Sar][Sar]A[dD]VTCPWGPFWCPVNRP[dD]C
modifications: linker 7-14-21 via TBMB
B10: Compound 151 (peptide)
peptide: ADVHCPWAPFWCPVNRPGCA
modifications: linker 5-12-19 via TBMB
B11: Compound 152 (peptide)
peptide: ADVHCPWGAFWCPVNRPGCA
modifications: linker 5-12-19 via TBMB
B12: Compound 194 (peptide)
peptide: Ac-[Sar][Sar][dA]HDVPCPWGPFWCPVNRPGC
modifications: linker 8-15-22 via TBMB
B13: Compound 191 (peptide)
peptide: AHDVPCP[1Nal]G[Aib]FWCP[Tle]N[hArg]PGC
modifications: linker 6-13-20 via TBMB
B14: Compound 156 (peptide)
peptide: ADVHCPWGPFWCPVN[dA]PGCA
modifications: linker 5-12-19 via TBMB
B15: Compound 161 (peptide)
peptide: Ac-[Sar][Sar]A[dD][Ala(cPr)]TCPWGPFWCPVNRPGC
modifications: linker 7-14-21 via TBMB
B16: Compound 199 (peptide)
peptide: [Sar][Sar]A[dA]DVPCPWGPFWCPVNRPGC
modifications: linker 8-15-22 via TBMB
B17: Compound 170 (peptide)
peptide: Ac-[Sar][Sar]A[dD]VTCP[1Nal]GPFWCPVNRPGC
modifications: linker 7-14-21 via TBMB
B18: Compound 181 (peptide)
peptide: Ac-[Sar][Sar]A[dD]VTCP[1Nal]G[Aib]F[1Nal]CPVNR[Aib]GC
modifications: linker 7-14-21 via TBMB
B19: Compound 178 (peptide)
peptide: Ac-[Sar][Sar]A[dD]VTCP[1Nal]G[Aib]FWCPVNR[Aib]GC
modifications: linker 7-14-21 via TBMB
B20: Compound 197 (peptide)
peptide: [Sar][Sar]A[dH]DVPCPWGPFWCPVNRPGC
modifications: linker 8-15-22 via TBMB
B21: Compound 176 (peptide)
peptide: Ac-[Sar][Sar]A[dD]VTCPWGPFWCPVN[hArg]P[dD]C
modifications: linker 7-14-21 via TBMB
B22: Compound 153 (peptide)
peptide: ADVHCPWG[Aib]FWCPVNRPGCA
modifications: linker 5-12-19 via TBMB
B23: Compound 188 (peptide)
peptide: AHDVPCP[1Nal]GPFWCPVNRPGC
modifications: linker 6-13-20 via TBMB
B24: Compound 112 (peptide)
peptide: [Sar][Sar]ACPWGPFWCPVNRP[dA]C
modifications: linker 4-11-18 via TBMB
B25: Compound 130 (peptide)
peptide: [Sar][Sar]ACP[1Nal]GPFWCP[Tle]N[hArg]PGC
modifications: linker 4-11-18 via TBMB
B26: Compound 160 (peptide)
peptide: Ac-[Sar][Sar]A[dD][Cba]TCPWGPFWCPVNRPGC
modifications: linker 7-14-21 via TBMB
B27: Compound 177 (peptide)
peptide: Ac-[Sar][Sar]A[dD]VTCPWGPFWCPVNR[Aib][dD]C
modifications: linker 7-14-21 via TBMB
B28: Compound 159 (peptide)
peptide: Ac-[Sar][Sar]A[dD][dD]TCPWGPFWCPVNRPGC
modifications: linker 7-14-21 via TBMB
B29: Compound 198 (peptide)
peptide: Ac-[Sar][Sar]A[dH]DVCPWGPFWCPVNRPGC
modifications: linker 7-14-21 via TBMB
B30: Compound 149 (peptide)
peptide: ADVHCP[Dip]GPFWCPVNRPGCA
modifications: linker 5-12-19 via TBMB
B31: Compound 172 (peptide)
peptide: Ac-[Sar][Sar]A[dD]VTCPWGPNWCPVNRPGC
modifications: linker 7-14-21 via TBMB
B32: Compound 174 (peptide)
peptide: Ac-[Sar][Sar]A[dD]VTCPWGPFWCPLNRPGC
modifications: linker 7-14-21 via TBMB
B33: Compound 173 (peptide)
peptide: Ac-[Sar][Sar]A[dD]VTCPWGPAWCPVNRPGC
modifications: linker 7-14-21 via TBMB
B34: Compound 196 (peptide)
peptide: Ac-[Sar][Sar]A[dH]DVPCPWGPFWCPVNRPGC
modifications: linker 8-15-22 via TBMB
B35: Compound 281 (peptide)
peptide: Ac-[Sar][Sar]A[dD]DVTCPWGPFWCPVNRPGC
modifications: linker 8-15-22 via TBMB
B36: Compound 171 (peptide)
peptide: Ac-[Sar][Sar]A[dD]VTCPWGP[hArg]WCPVNRPGC
modifications: linker 7-14-21 via TBMB
B37: Compound 189 (peptide)
peptide: AHDVPCPWGPF[1Nal]CPVNRPGC
modifications: linker 6-13-20 via TBMB
B38: Compound 164 (peptide)
peptide: Ac-[Sar][Sar]AD[Tle]TCPWGPFWCPVNRPGC
modifications: linker 7-14-21 via TBMB
B39: Compound 200 (peptide)
peptide: Ac-[Sar][Sar]A[dD]DVPCPWGPFWCPVNRPGC
modifications: linker 8-15-22 via TBMB
B40: Compound 180 (peptide)
peptide: Ac-[Sar][Sar]A[dD]VTCPWG[Aib]FWCP[Tle]NR[Aib]GC
modifications: linker 7-14-21 via TBMB
B41: Compound 193 (peptide)
peptide: Ac-[Sar][Sar]AHDVPCPWGPFWCPVNRPGC
modifications: linker 8-15-22 via TBMB
B42: Compound 207 (peptide)
peptide: [Sar][Sar]AHEVPCPWGPFWCPVNRPGC
modifications: linker 8-15-22 via TBMB
B43: Compound 205 (peptide)
peptide: [Sar][Sar]AHAVPCPWGPFWCPVNRPGC
modifications: linker 8-15-22 via TBMB
B44: Compound 218 (peptide)
peptide: [Sar][Sar]AHDVACPWGPFWCPVNRPGC
modifications: linker 8-15-22 via TBMB
B45: Compound 214 (peptide)
peptide: [Sar][Sar]AHDAPCPWGPFWCPVNRPGC
modifications: linker 8-15-22 via TBMB
B46: Compound 195 (peptide)
peptide: Ac-[Sar][Sar]AADVPCPWGPFWCPVNRPGC
modifications: linker 8-15-22 via TBMB
B47: Compound 192 (peptide)
peptide: AHDVPCP[1Nal]G[Aib]FWCP[Tle]NR[Aib]GC
modifications: linker 6-13-20 via TBMB
B48: Compound 150 (peptide)
peptide: ADVHCP[1Nal]GPFWCPVNRPGCA
modifications: linker 5-12-19 via TBMB
B49: Compound 138 (peptide)
peptide: [Sar][Sar]ACP[1Nal]GPFWCP[Tle]N[hArg][Aib]GC
modifications: linker 4-11-18 via TBMB

target: T1, Human EphA2 (Ecto) (Human, UniProt P29317 24-537); assay: FP competition; competitor Compound 18
T1 construct: extracellular domain
Description: Peptides without a fluorescent tag were tested in competition with a peptide with a fluorescent tag and a known Kd (Table 2). Peptides were diluted to an appropriate concentration in assay buffer as described in the direct binding assay with a maximum of 5% DMSO, then serially diluted 1 in 2. Five μL of diluted peptide was added to the plate followed by 10 μL of human or mouse EphA2 (Table 1) at a fixed concentration which was dependent on the fluorescent peptide used (Table 2), then 10 μL fluorescent peptide added. Measurements were conducted as for the direct binding assay, however the gain was determined prior to the first measurement.

T1 sequence (P29317 24-537): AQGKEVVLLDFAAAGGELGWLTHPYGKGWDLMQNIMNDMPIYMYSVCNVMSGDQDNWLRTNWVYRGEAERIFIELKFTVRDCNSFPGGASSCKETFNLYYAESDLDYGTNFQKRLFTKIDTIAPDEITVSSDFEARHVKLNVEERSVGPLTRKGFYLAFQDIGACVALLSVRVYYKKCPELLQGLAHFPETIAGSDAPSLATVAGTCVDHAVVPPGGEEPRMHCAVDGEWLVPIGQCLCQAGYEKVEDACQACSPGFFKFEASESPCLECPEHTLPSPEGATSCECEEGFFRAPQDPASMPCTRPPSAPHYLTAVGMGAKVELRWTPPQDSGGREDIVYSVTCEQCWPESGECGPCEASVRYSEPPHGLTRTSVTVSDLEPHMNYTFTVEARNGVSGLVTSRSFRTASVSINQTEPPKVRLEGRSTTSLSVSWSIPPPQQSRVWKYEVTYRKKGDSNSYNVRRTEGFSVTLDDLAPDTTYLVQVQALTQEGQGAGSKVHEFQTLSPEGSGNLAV

Row | Ki | Binder
1 | 2.55 nM | B1
2 | 0.7 nM | B2
3 | 2.94 nM | B3
4 | 2 nM | B4
5 | 1.2 nM | B5
6 | 0.91 nM | B6
7 | 2.17 nM | B7
8 | 0.32 nM | B8
9 | 1.78 nM | B9
10 | 394 nM | B10
11 | 1.8 nM | B11
12 | 1.2 nM | B12
13 | 3.1 nM | B13
14 | 14.9 nM | B14
15 | 4.44 nM | B15
16 | 3.35 nM | B16
17 | 0.6 nM | B17
18 | 1.37 nM | B18
19 | 2.4 nM | B19
20 | 1.2 nM | B20
21 | 4.89 nM | B21
22 | 0.51 nM | B22
23 | 1.45 nM | B23
24 | 89 nM | B24
25 | 0.29 nM | B25

Row | Ki | Binder
26 | 2.6 nM | B26
27 | 4.43 nM | B27
28 | 2.85 nM | B28
29 | 20 nM | B29
30 | 52.8 nM | B30
31 | 3.96 nM | B31
32 | 9.1 nM | B32
33 | 6.69 nM | B33
34 | 0.95 nM | B34
35 | 5.78 nM | B35
36 | 4.88 nM | B36
37 | 1.3 nM | B37
38 | 2.25 nM | B38
39 | 4.1 nM | B39
40 | 3.83 nM | B40
41 | 0.59 nM | B41
42 | 1.3 nM | B42
43 | 1.8 nM | B43
44 | 1.27 nM | B44
45 | 22.5 nM | B45
46 | 1.01 nM | B46
47 | 1.75 nM | B47
48 | 0.12 nM | B48
49 | 5.1 nM | B49
